How the values were obtained:
[1] = system: HeLa Kyoto; test: melting temperature (median over replicates), in situ; higher = more thermally stable
[2] = system: HeLa Kyoto; test: solubility change mitosis vs G1/S (difference of NP-40 vs SDS log2 ratios) (log2 ratio difference); higher = more soluble in mitosis
[3] = system: HeLa Kyoto; test: thermal stability score vs G1/S (z-score of summed log2 fold changes over temperatures); higher = more thermally stable than in G1/S
[4] = system: HeLa Kyoto; test: solubility in G1/S (NP-40 vs SDS abundance) (log2 ratio); higher = more soluble; conditions: cell cycle stage: G1/S
[5] = cell cycle stage: early G1 (4.5 h after nocodazole release)
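Throughout, for melting temperature (median over replicates), in situ: HeLa Kyoto cells synchronized by double thymidine or nocodazole block, proteins quantified by TMT10plex mass spectrometry, three independent biological replicates.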
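Throughout, for solubility change mitosis vs G1/S (difference of NP-40 vs SDS log2 ratios): synchronized HeLa Kyoto cells (double thymidine block for G1/S, nocodazole release for mitosis), protein amounts in NP-40 versus SDS lysates quantified by mass spectrometry, three biological replicates.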
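Throughout, for solubility in G1/S (NP-40 vs SDS abundance): HeLa Kyoto cells arrested at G1/S by double thymidine block, proteins quantified by TMT10plex mass spectrometry in mild NP-40 versus SDS extracts, three biological replicates.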
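Throughout, for thermal stability score vs G1/S (z-score of summed log2 fold changes over temperatures): synchronized HeLa Kyoto cells, proteins quantified by TMT10plex mass spectrometry, three biological replicates, mitosis taken 0.5 h after nocodazole release, G1/S directly after double thymidine block.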

Row | Sequence | melting temperature ([1]; cell cycle stage: G1/S) [°C] | melting temperature ([1]; cell cycle stage: mitosis) [°C] | solubility change mitosis (log2) [2] | thermal stability score [3, 5] | thermal stability score ([3]; cell cycle stage: mitosis) | solubility in G1/S (log2) [4]
1 | MAEPSAATQSHSISSSSFGAEPSAPGGGGSPGACPALGTKSCSSSCADSFVSSSSSQPVSLFSTSQEGLSSLCSDEPSSEIMTSSFLSSSEIHNTGLTILHGEKSHVLGSQPILAKEGKDHLDLLDMKKMEKPQGTSNNVSDSSVSLAAGVHCDRPSIPASFPEHPAFLSKKIGQVEEQIDKETKNPNGVSSREAKTALDADDRFTLLTAQKPPTEYSKVEGIYTYSLSPSKVSGDDVIEKDSPESPFEVIIDKAAFDKEFKDSYKESTDDFGSWSVHTDKESSEDISETNDKLFPLRNKEAGRYPMSALLSRQFSHTNAALEEVSRCVNDMHNFTNEILTWDLVPQVKQQTDKSSDCITKTTGLDMSEYNSEIPVVNLKTSTHQKTPVCSIDGSTPITKSTGDWAEASLQQENAITGKPVPDSLNSTKEFSIKGVQGNMQKQDDTLAELPGSPPEKCDSLGSGVATVKVVLPDDHLKDEMDWQSSALGEITEADSSGESDDTVIEDITADTSFENNKIQAEKPVSIPSAVVKTGEREIKEIPSCEREEKTSKNFEELVSDSELHQDQPDILGRSPASEAACSKVPDTNVSLEDVSEVAPEKPITTENPKLPSTVSPNVFNETEFSLNVTTSAYLESLHGKNVKHIDDSSPEDLIAAFTETRDKGIVDSERNAFKAISEKMTDFKTTPPVEVLHENESGGSEIKDIGSKYSEQSKETNGSEPLGVFPTQGTPVASLDLEQEQLTIKALKELGERQVEKSTSAQRDAELPSEEVLKQTFTFAPESWPQRSYDILERNVKNGSDLGISQKPITIRETTRVDAVSSLSKTELVKKHVLARLLTDFSVHDLIFWRDVKKTGFVFGTTLIMLLSLAAFSVISVVSYLILALLSVTISFRIYKSVIQAVQKSEEGHPFKAYLDVDITLSSEAFHNYMNAAMVHINRALKLIIRLFLVEDLVDSLKLAVFMWLMTYVGAVFNGITLLILAELLIFSVPIVYEKYKTQIDHYVGIARDQTKSIVEKIQAKLPGIAKKKAE [RTN3] | 55.7 | 57.6 | -0.108 | 0.293 | -1.15 | 0.125
2 | MFRRKLTALDYHNPAGFNCKDETEFRNFIVWLEDQKIRHYKIEDRGNLRNIHSSDWPKFFEKYLRDVNCPFKIQDRQEAIDWLLGLAVRLEYGDNAEKYKDLVPDNSKTADNATKNAEPLINLDVNNPDFKAGVMALANLLQIQRHDDYLVMLKAIRILVQERLTQDAVAKANQTKEGLPVALDKHILGFDTGDAVLNEAAQILRLLHIEELRELQTKINEAIVAVQAIIADPKTDHRLGKVGR [C14ORF166] | 50.1 | 51.3 | 0.329 | -1.08 | -0.0878 | 0.0935
3 | MARKLSVILILTFALSVTNPLHELKAAAFPQTTEKISPNWESGINVDLAISTRQYHLQQLFYRYGENNSLSVEGFRKLLQNIGIDKIKRIHIHHDHDHHSDHEHHSDHERHSDHEHHSEHEHHSDHDHHSHHNHAASGKNKRKALCPDHDSDSSGKDPRNSQGKGAHRPEHASGRRNVKDSVSASEVTSTVYNTVSEGTHFLETIETPRPGKLFPKDVSSSTPPSVTSKSRVSRLAGRKTNESVSEPRKGFMYSRNTNENPQECFNASKLLTSHGMGIQVPLNATEFNYLCPAIINQIDARSCLIHTSEKKAEIPPKTYSLQIAWVGGFIAISIISFLSLLGVILVPLMNRVFFKFLLSFLVALAVGTLSGDAFLHLLPHSHASHHHSHSHEEPAMEMKRGPLFSHLSSQNIEESAYFDSTWKGLTALGGLYFMFLVEHVLTLIKQFKDKKKKNQKKPENDDDVEIKKQLSKYESQLSTNEEKVDTDDRTEGYLRADSQEPSHFDSQQPAVLEEEEVMIAHAHPQEVYNEYVPRGCKNKCHSHFHDTLGQSDDLIHHHHDYHHILHHHHHQNHHPHSHSQRYSREELKDAGVATLAWMVIMGDGLHNFSDGLAIGAAFTEGLSSGLSTSVAVFCHELPHELGDFAVLLKAGMTVKQAVLYNALSAMLAYLGMATGIFIGHYAENVSMWIFALTAGLFMYVALVDMVPEMLHNDASDHGCSRWGYFFLQNAGMLLGFGIMLLISIFEHKIVFRINF [SLC39A6] | – | 57.4 | -0.0474 | 0.915 | -0.208 | -0.161
4 | MRPPGFLSRAPSLNRAERGIWSCSMDQREPLPPAPAENEMKYDTNNNEEEEGEQFDFDSGDEIPEADRQAPSAPETGGAGASEAPAPTGGEDGAGAETTPVAEPTKLVLPMKVNPYSVIDITPFQEDQPPTPVPSAEEENVGLHVPCGYLVPVPCGYAVPSNLPLLLPAYSSPVIICATSLDEEAETPEVTEDRQPNSLSSEEPPTSEDQVGREDSALARWAADPANTAWMENPEEAIYDDVPRENSDSEPDEMIYDDVENGDEGGNSSLEYGWSSSEFESYEEQSDSECKNGIPRSFLRSNHKKQLSHDLTRLKEHYEKKMRDLMASTVGVVEIQQLRQKHELKMQKLVKAAKDGTKDGLERTRAAVKRGRSFIRTKSLIAQDHRSSLEEEQNLFIDVDCKHPEAILTPMPEGLSQQQVVRRYILGSVVDSEKNYVDALKRILEQYEKPLSEMEPKVLSERKLKTVFYRVKEILQCHSLFQIALASRVSEWDSVEMIGDVFVASFSKSMVLDAYSEYVNNFSTAVAVLKKTCATKPAFLEFLKQEQEASPDRTTLYSLMMKPIQRFPQFILLLQDMLKNTSKGHPDRLPLQMALTELETLAEKLNERKRDADQRCEVKQIAKAINERYLNKLLSSGSRYLIRSDDMIETVYNDRGEIVKTKERRVFMLNDVLMCATVSSRPSHDSRVMSSQRYLLKWSVPLGHVDAIEYGSSAGTGEHSRHLAVHPPESLAVVANAKPNKVYMGPGQLYQDLQNLLHDLNVIGQITQLIGNLKGNYQNLNQSVAHDWTSGLQRLILKKEDEIRAADCCRIQLQLPGKQDKSGRPTFFTAVFNTFTPAIKESWVNSLQMAKLALEEENHMGWFCVEDDGNHIKKEKHPLLVGHMPVMVAKQQEFKIECAAYNPEPYLNNESQPDSFSTAHGFLWIGSCTHQMGQIAIVSFQNSTPKVIECFNVESRILCMLYVPVEEKRREPGAPPDPETPAVRASDVPTICVGTEEGSISIYKSSQGSKKVRLQHFFTPEKSTVMSLACTSQSLYAGLVNGAVASYARAPDGSWDSEPQKVIKLGVLPVRSLLMMEDTLWAASGGQVFIISVETHAVEGQLEAHQEEGMVISHMAVSGVGIWIAFTSGSTLRLFHTETLKHLQDINIATPVHNMLPGHQRLSVTSLLVCHGLLMVGTSLGVLVALPVPRLQGIPKVTGRGMVSYHAHNSPVKFIVLATALHEKDKDKSRDSLAPGPEPQDEDQKDALPSGGAGSSLSQGDPDAAIWLGDSLGSMTQKSDLSSSSGSLSLSHGSSSLEHRSEDSTIYDLLKDPVSLRSKARRAKKAKASSALVVCGGQGHRRVHRKARQPHQEELAPTVMVWQIPLLNI [ARHGEF10] | 49.3 | 49.8 | -0.182 | -0.414 | 0.205 | -0.0539
5 | MPLSRWLRSVGVFLLPAPYWAPRERWLGSLRRPSLVHGYPVLAWHSARCWCQAWTEEPRALCSSLRMNGDQNSDVYAQEKQDFVQHFSQIVRVLTEDEMGHPEIGDAIARLKEVLEYNAIGGKYNRGLTVVVAFRELVEPRKQDADSLQRAWTVGWCVELLQAFFLVADDIMDSSLTRRGQICWYQKPGVGLDAINDANLLEACIYRLLKLYCREQPYYLNLIELFLQSSYQTEIGQTLDLLTAPQGNVDLVRFTEKRYKSIVKYKTAFYSFYLPIAAAMYMAGIDGEKEHANAKKILLEMGEFFQIQDDYLDLFGDPSVTGKIGTDIQDNKCSWLVVQCLQRATPEQYQILKENYGQKEAEKVARVKALYEELDLPAVFLQYEEDSYSHIMALIEQYAAPLPPAVFLGLARKIYKRRK [FDPS] | 50.8 | 51 | -0.0646 | 2.88 | 3.37 | 0.151
6 | MAAPRAGRGAGWSLRAWRALGGIRWGRRPRLTPDLRALLTSGTSDPRARVTYGTPSLWARLSVGVTEPRACLTSGTPGPRAQLTAVTPDTRTREASENSGTRSRAWLAVALGAGGAVLLLLWGGGRGPPAVLAAVPSPPPASPRSQYNFIADVVEKTAPAVVYIEILDRHPFLGREVPISNGSGFVVAADGLIVTNAHVVADRRRVRVRLLSGDTYEAVVTAVDPVADIATLRIQTKEPLPTLPLGRSADVRQGEFVVAMGSPFALQNTITSGIVSSAQRPARDLGLPQTNVEYIQTDAAIDFGNSGGPLVNLDGEVIGVNTMKVTAGISFAIPSDRLREFLHRGEKKNSSSGISGSQRRYIGVMMLTLSPSILAELQLREPSFPDVQHGVLIHKVILGSPAHRAGLRPGDVILAIGEQMVQNAEDVYEAVRTQSQLAVQIRRGRETLTLYVTPEVTE [HTRA2] | 56.9 | 56.5 | 0.028 | -2.4 | -3.14 | 0.168
7 | MKVKMLSRNPDNYVRETKLDLQRVPRNYDPALHPFEVPREYIRALNATKLERVFAKPFLASLDGHRDGVNCLAKHPEKLATVLSGACDGEVRIWNLTQRNCIRTIQAHEGFVRGICTRFCGTSFFTVGDDKTVKQWKMDGPGYGDEEEPLHTILGKTVYTGIDHHWKEAVFATCGQQVDIWDEQRTNPICSMTWGFDSISSVKFNPIETFLLGSCASDRNIVLYDMRQATPLKKVILDMRTNTICWNPMEAFIFTAANEDYNLYTFDMRALDTPVMVHMDHVSAVLDVDYSPTGKEFVSASFDKSIRIFPVDKSRSREVYHTKRMQHVICVKWTSDSKYIMCGSDEMNIRLWKANASEKLGVLTSREKAAKDYNQKLKEKFQHYPHIKRIARHRHLPKSIYSQIQEQRIMKEARRRKEVNRIKHSKPGSVPLVSEKKKHVVAVVK [DCAF13] | 54.8 | – | 0.446 | -1.4 | -1.29 | -2.16
8 | MGLLSQGSPLSWEETKRHADHVRRHGILQFLHIYHAVKDRHKDVLKWGDEVEYMLVSFDHENKKVRLVLSGEKVLETLQEKGERTNPNHPTLWRPEYGSYMIEGTPGQPYGGTMSEFNTVEANMRKRRKEATSILEENQALCTITSFPRLGCPGFTLPEVKPNPVEGGASKSLFFPDEAINKHPRFSTLTRNIRHRRGEKVVINVPIFKDKNTPSPFIETFTEDDEASRASKPDHIYMDAMGFGMGNCCLQVTFQACSISEARYLYDQLATICPIVMALSAASPFYRGYVSDIDCRWGVISASVDDRTREERGLEPLKNNNYRISKSRYDSIDSYLSKCGEKYNDIDLTIDKEIYEQLLQEGIDHLLAQHVAHLFIRDPLTLFEEKIHLDDANESDHFENIQSTNWQTMRFKPPPPNSDIGWRVEFRPMEVQLTDFENSAYVVFVVLLTRVILSYKLDFLIPLSKVDENMKVAQKRDAVLQGMFYFRKDICKGGNAVVDGCGKAQNSTELAAEEYTLMSIDTIINGKEGVFPGLIPILNSYLENMEVDVDTRCSILNYLKLIKKRASGELMTVARWMREFIANHPDYKQDSVITDEMNYSLILKCNQIANELCECPELLGSAFRKVKYSGSKTDSSN [GCLC] | 52 | 51.8 | -0.172 | -0.677 | -1.1 | 0.0288
9 | MGILEKISEIEKEIARTQKNKATEYHLGLLKAKLAKYRAQLLEPSKSASSKGEGFDVMKSGDARVALIGFPSVGKSTFLSLMTSTASEAASYEFTTLTCIPGVIEYKGANIQLLDLPGIIEGAAQGKGRGRQVIAVARTADVIIMMLDATKGEVQRSLLEKELESVGIRLNKHKPNIYFKPKKGGGISFNSTVTLTQCSEKLVQLILHEYKIFNAEVLFREDCSPDEFIDVIVGNRVYMPCLYVYNKIDQISMEEVDRLARKPNSVVISCGMKLNLDYLLEMLWEYLALTCIYTKKRGQRPDFTDAIILRKGASVEHVCHRIHRSLASQFKYALVWGTSTKYSPQRVGLTHTMEHEDVIQIVKK [DRG2] | 51.9 | 51.6 | -0.113 | -0.377 | -0.907 | 0.0131

Source: the supplement of paper PMC5998384
